For assay [1], the target named is Collagen I Rat Protein, Tail (rat collagen type I) (rat) (UniProt P02454). Put plainly: whole-cell adhesion assay (fluorescence of sfGFP-expressing bacteria); commercial 96-well plates pre-coated with rat collagen type I (GIBCO); YadA induced with 0.2 µg/ml ATc, compared with the not-induced control.
The target of assay [2] is Collagen I Bovine Protein (bovine collagen type I) (bovine) (UniProt P02453). Put plainly: whole-cell adhesion assay (fluorescence of sfGFP-expressing bacteria); strain AS76; wells coated with 100 µg/ml bovine collagen type I for 30 min, with or without blocking with 50 mg/ml BSA in PBS for 30 min; YadA induced with 0.1 µg/ml ATc, compared with uninduced cells.
Sequence of UniProt P02453 (P02453 162-1217, chain 1 of 2): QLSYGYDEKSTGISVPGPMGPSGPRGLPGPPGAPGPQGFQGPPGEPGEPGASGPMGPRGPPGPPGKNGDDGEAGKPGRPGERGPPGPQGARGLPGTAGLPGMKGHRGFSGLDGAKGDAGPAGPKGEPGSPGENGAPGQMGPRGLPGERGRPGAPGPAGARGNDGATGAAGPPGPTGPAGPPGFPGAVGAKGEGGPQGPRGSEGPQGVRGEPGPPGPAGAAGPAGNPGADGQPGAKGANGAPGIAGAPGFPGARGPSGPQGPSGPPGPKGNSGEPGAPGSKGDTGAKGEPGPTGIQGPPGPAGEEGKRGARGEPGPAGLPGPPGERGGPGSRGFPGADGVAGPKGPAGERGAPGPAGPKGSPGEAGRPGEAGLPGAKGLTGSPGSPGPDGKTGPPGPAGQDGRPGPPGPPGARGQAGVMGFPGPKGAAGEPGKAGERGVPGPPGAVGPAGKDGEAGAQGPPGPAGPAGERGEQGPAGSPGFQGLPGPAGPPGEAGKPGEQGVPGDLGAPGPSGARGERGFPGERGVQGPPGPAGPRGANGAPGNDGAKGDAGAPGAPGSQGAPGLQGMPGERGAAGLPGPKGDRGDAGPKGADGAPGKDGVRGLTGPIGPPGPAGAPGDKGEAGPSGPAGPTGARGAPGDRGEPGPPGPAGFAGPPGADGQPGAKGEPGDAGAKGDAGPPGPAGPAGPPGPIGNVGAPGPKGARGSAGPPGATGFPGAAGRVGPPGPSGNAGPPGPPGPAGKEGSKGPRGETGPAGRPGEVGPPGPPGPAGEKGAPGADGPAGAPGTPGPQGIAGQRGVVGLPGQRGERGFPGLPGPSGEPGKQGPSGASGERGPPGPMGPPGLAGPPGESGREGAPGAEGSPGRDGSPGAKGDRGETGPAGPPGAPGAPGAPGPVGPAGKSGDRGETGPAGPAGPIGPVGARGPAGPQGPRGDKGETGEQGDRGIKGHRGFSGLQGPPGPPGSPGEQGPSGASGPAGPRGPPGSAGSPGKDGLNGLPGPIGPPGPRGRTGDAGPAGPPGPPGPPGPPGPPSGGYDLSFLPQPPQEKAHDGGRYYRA
Sequence of UniProt P02453 (P02465 80-1117, chain 2 of 2, further chain): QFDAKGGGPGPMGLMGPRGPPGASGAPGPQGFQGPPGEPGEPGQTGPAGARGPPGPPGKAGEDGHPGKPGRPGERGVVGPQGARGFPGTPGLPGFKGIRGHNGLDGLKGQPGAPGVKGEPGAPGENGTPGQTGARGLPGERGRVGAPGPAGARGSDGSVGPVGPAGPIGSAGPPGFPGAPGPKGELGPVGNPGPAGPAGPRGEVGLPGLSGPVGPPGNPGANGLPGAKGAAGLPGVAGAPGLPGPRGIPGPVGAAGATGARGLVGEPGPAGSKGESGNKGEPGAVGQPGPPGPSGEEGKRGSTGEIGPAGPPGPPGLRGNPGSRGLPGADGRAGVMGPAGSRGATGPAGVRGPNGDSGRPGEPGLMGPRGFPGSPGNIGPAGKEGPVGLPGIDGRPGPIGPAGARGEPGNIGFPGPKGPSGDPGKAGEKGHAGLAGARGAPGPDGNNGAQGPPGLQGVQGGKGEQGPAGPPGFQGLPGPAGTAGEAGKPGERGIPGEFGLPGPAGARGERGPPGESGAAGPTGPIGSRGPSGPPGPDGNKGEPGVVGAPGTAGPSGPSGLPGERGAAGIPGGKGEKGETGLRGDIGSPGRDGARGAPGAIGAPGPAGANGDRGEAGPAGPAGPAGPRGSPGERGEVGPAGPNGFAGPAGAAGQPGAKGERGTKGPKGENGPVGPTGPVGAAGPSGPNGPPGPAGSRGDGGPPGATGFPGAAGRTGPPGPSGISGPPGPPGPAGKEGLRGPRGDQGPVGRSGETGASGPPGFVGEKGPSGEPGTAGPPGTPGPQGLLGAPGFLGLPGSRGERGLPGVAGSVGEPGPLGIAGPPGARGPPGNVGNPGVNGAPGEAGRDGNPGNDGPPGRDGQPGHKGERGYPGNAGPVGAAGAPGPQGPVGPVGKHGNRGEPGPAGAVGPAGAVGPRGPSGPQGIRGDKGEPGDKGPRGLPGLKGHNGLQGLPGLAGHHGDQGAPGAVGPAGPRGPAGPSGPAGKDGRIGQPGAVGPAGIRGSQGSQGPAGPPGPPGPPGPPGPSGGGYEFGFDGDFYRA

Sequence of UniProt P02454 (P02454 152-1207, chain 1 of 2): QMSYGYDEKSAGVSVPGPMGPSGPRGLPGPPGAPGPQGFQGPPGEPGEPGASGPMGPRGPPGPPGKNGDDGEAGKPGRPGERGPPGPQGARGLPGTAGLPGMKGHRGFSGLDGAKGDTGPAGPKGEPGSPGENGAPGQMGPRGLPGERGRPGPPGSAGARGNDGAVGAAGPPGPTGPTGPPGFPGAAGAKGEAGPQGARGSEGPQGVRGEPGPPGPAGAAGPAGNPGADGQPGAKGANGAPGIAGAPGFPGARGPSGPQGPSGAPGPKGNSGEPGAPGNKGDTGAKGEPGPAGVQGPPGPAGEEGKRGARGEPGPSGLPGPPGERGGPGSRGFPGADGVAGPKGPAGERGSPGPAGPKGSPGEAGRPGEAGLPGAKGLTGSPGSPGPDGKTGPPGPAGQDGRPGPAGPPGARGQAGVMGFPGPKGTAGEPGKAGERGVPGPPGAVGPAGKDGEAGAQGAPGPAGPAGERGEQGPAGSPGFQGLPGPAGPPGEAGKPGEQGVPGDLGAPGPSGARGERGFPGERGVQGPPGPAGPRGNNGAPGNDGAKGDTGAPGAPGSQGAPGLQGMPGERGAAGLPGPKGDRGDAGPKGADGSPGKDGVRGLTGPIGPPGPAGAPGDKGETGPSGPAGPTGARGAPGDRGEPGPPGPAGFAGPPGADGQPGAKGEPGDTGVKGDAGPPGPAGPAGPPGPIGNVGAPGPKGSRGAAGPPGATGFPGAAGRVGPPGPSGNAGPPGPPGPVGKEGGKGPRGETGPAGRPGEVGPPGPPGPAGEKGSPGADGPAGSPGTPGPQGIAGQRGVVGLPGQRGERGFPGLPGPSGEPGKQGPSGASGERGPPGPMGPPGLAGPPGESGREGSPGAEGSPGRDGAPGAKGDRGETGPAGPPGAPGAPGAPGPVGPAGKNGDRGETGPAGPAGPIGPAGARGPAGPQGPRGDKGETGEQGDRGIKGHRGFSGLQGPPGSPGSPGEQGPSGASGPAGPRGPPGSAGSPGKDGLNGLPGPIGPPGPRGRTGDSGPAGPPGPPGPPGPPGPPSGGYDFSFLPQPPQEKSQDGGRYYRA
Sequence of UniProt P02454 (P02466 86-1125, chain 2 of 2, further chain): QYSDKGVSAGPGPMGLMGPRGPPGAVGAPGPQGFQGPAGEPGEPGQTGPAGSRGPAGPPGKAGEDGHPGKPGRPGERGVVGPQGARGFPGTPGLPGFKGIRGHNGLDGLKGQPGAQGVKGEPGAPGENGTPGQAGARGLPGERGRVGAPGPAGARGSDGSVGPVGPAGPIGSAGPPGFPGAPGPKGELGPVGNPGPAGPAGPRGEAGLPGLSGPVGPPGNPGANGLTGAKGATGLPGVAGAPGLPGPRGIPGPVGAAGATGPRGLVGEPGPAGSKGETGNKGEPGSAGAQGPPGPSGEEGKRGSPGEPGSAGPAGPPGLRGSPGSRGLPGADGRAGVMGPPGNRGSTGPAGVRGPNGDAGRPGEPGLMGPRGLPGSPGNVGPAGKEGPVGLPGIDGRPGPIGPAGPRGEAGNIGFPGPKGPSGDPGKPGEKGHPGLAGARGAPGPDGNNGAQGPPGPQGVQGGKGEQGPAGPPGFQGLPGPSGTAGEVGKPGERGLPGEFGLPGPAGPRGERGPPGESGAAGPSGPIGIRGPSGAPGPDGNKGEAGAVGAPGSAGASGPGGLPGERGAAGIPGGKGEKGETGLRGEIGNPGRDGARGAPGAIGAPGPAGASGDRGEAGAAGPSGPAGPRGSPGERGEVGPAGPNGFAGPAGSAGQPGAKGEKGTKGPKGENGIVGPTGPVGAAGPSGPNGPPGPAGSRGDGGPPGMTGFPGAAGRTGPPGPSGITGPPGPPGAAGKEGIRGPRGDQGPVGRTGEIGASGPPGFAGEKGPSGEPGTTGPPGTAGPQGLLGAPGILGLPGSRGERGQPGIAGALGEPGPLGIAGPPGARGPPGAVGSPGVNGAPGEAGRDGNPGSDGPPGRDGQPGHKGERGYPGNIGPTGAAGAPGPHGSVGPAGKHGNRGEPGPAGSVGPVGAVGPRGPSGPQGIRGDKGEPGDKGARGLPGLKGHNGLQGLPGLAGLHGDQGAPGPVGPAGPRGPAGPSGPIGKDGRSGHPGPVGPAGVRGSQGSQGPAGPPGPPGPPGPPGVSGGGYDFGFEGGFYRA

In assay [1], “Yersinia enterocolitica Adhesin A (YadA), wild type, on the surface of E. coli cells (from UniProt A1JUB7 26-422) (natural protein)” yielded a fold difference of signal, induced against not-induced control of 2.5 fold. In assay [2], this substance returned a fold change of signal, YadA-expressing against uninduced cells (collagen-coated, BSA-blocked wells) of 4.1 fold and a fold change of signal, YadA-expressing against uninduced cells (collagen-coated, not BSA-blocked wells) of 4.4 fold.
